Test results taken from patent US20240075114A1.

Target: PF-4 in cynomolgus monkey plasma (cynomolgus monkey)
Assay: aligned sandwich ELISA, cyno plasma

AUC Ratio vs anti-HPF4: 1 | anti-HPF4 AUC mean: 2.9
Substance: monoclonal anti-HPF4 antibody (Abcam cat. no.: ab49735)
